Consider one protein from publication doi:10.1101/2023.09.18.558202 (bioRxiv, 2023).

This data set concerns the molecule itself. Put plainly: SEC. In general terms: Size exclusion chromatography separates by hydrodynamic size, large species first.

B1: F420-dependent methylene-tetrahydromethanopterin reductase (Mer) from Methanocaldococcus jannaschii (enzyme, UniProt Q58929 1-331, looked up)
chain: MKFGIEFVPNEPIQKLCYYVKLAEDNGFEYCWITDHYNNRNVYMALTAIAMNTNKIKLGPGVTNPYVRSPAITASAIATLDELSGGRAVLGIGPGDKATFDALGIEWVKPVTTLKESIEVIRKLLAGERVSYEGKVVKIAGAALAVKPIQKAVPVYMGAQGPKMLETAGMIADGVLINASNPKDFEAAIPLIKKGAEAAGRSMDEIDVAAYACMSVDKNADKAKQAAVPVVAFIAAGSPPVVLERHGIDMEKVEAIRNALKSGNFPEAFKNVDDTMLEAFSIYGTPEDVVEKCKKLAEMGVTQIVAGSPIGPNKETAIKLIGKKVIPALKE
In general, stoichiometry N refers to a count of units in the complex or per binding partner. Take B1: the “stoichiometry N” value amounted to 2.
